Molecular target: T1, human β-catenin (armadillo repeat 3 up to the C-terminal end, Leu218-Leu781) fused to the activation domain … (human, UniProt P04386 768-881; P35222 218-781)
T1 construct: Order of the fusion follows the vector; also called wild type β-catenin
T1 sequence (looked up): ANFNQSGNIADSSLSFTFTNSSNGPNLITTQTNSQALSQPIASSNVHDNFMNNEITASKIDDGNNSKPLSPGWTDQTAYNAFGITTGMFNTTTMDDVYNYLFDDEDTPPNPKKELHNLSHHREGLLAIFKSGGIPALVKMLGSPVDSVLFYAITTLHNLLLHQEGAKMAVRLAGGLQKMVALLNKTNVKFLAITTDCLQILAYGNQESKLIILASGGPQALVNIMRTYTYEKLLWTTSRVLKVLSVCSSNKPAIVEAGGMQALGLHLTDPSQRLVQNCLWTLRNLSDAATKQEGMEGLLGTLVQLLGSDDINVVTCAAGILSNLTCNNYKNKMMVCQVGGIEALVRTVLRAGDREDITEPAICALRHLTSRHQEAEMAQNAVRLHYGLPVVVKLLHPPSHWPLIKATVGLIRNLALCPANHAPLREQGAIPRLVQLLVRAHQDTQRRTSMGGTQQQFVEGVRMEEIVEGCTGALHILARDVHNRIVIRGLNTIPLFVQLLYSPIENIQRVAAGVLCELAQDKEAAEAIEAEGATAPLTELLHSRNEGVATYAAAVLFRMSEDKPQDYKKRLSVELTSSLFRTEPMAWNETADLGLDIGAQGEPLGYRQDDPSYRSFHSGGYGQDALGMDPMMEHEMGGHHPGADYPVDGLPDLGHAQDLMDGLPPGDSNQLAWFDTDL
Test: yeast 2-hybrid; wild type is the 100% reference of Table 2
Protocol: 4. Preparation and testing of mutants of β-catenin modulating the interaction with LEF-1, APC, conductin or E-cadherin The mutagenesis of β-catenin in the armadillo repeats 3–8 was carried out by means of the "mutagenesis kit" of the company Clontech according to the producer's record and the mutants were checked by sequencing (FIG. 5). In all mutants the original amino acid was substituted by alanine. For analyzing the interactions the cDNA of human β-catenin (armadillo repeat 3 up to the C-terminal end of the protein) coding for the amino acids Leu218–Leu7 µl or its mutants was cloned into the fusion vector for the activation domain of Gal-4 (pGAD424, Clontech). The cDNA for the binding domains of the interaction partners was cloned into the Lex-A fusion vector BTM 116. To this end, the cDNA of LEF-1 for the amino acids 1–99, conductin for the amino acids Ala342–ARG465; of human APC for the amino acids His1012–Glu1215 (APC 15 amino acid repeats) and for the amino acids Ser1259Asp 1400 (APC 20 amino acid repeats) and E-cadherin for the amino acids Gin773–Asp884 (cytoplasmatic domain) were amplified with the respective primers PCR. The interaction of the Lex-A hybrids with β-catenin and its mutants was quantified by means of the β-galactosidase reporter activity in the yeast 2-hybrid system (report: "Matchmaker". Clontech) (Tab. 2 and FIG. 6).

binding result: binds
B1: LEF-1 amino acids 1-99 fused to Lex-A (vector BTM 116) (other, UniProt P0A7C2 1-202, looked up)
chain: MKALTARQQEVFDLIRDHISQTGMPPTRAEIAQRLGFRSPNAAEEHLKALARKGVIEIVSGASRGIRLLQEEEEGLPLVGRVAAGEPLLAQQHIEGHYQVDPSLFKPNADFLLRVSGMSMKDIGIMDGDLLAVHKTQDVRNGQVVVARIDDEVTVKRLKKQGNKVELLPENSEFKPIVVDLRQQSFTIEGLAVGVIRNGDWLMPQLSGGGGGGDPELCATDEMIPFKDEGDPQKEKIFAEISHPEEEGDLADIKSSLVNESEIIPASNGHEVVRQAPSSQEPYHDKAREHPDEGKHPDGGL
notes: Order of the fusion follows the vector; also called LEF-1/TCF-4

Source: US7067474B1, “Agents for treating human illnesses based on β-catenin, and the production and use thereof” (Max-Delbruck-Centrum fur Molekulare Medizin, priority 1998, dated 2006)
